Source: patent US20260070984A1 (Boehringer Ingelheim, published 2026)
Numbering of substitutions follows the chain as printed. Like-named read-outs stand apart in the source and are kept apart here. Each block holds one binder with its values, some of them ahead of it.

Experiments:
[1] = biological target: T1, human PD-1 expressed on cells (human, UniProt Q15116 25-288); assay: cell-based or functional assay
[2] = biological target: T1, human PD-1 expressed on cells; assay: cell-based or functional assay; remark: listed apart in the source
recombinant human PD-1 [3] = biological target: T2, recombinant human PD-1 (human, UniProt Q15116 25-167, limits assumed); assay: SPR, ProteOn XPR36, 1:1 binding model
T2 construct: Soluble recombinant protein used in SPR; also called PDCD1; purified recombinant human PD-1
Description: Antibody PD1AB-6-4P (antibody in IgG4Pro backbone disclosed in WO2017/058859 to Celgene) was also tested.

cynomologous PD-1 = biological target: T3, cynomologous PD-1 (cynomolgus monkey, UniProt B0LAJ3 25-170); assay: SPR, ProteOn XPR36, 1:1 binding model
T3 construct: Used in SPR; also called cynomolgus PD-1; recombinant cynomologus PD-1
Description: C) Affinity and kinetic data for the anti-PD-1 antibodies binding to cynomologous PD-1 were measured on the ProteOn™ XPR36 surface plasmon resonance optical biosensor, and globally fit to a 1:1 binding model (Table 11).

[4] = biological target: T1, human PD-1 expressed on cells; assay: cell-based or functional assay; remark: listed apart in the source
[5] = biological target: T1, human PD-1 expressed on cells; assay: cell-based or functional assay; remark: listed apart in the source
recombinant human PD-1 [6] = biological target: T2, recombinant human PD-1; assay: SPR, ProteOn XPR36
Description: Kinetics and binding affinities were measured using the ProteOn™ XPR36 (Biorad, Hercules, CA) surface plasmon resonance optical biosensor using material generated from transient transfection following single column purification.

T3 sequence (B0LAJ3 entry or part of it limits assumed): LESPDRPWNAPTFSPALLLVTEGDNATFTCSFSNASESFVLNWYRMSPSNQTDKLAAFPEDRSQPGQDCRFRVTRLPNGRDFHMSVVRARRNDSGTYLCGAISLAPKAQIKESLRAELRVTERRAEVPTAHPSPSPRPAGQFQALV
T1 sequence (Q15116 25-288): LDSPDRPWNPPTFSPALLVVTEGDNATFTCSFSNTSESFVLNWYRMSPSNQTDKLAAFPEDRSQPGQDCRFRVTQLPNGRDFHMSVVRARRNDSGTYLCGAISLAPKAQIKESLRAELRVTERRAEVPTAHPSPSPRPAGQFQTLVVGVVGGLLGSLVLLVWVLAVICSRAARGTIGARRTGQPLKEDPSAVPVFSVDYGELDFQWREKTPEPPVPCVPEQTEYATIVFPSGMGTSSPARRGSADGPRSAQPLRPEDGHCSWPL
T2 sequence (Q15116 25-167 limits assumed): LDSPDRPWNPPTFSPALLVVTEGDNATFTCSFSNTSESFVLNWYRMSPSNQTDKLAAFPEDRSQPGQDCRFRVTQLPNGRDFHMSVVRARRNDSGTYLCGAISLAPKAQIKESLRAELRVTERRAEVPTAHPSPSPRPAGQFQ

Emax Values (%), Average, inhibition of IFNγ [1]: 50.1%
IC50 Values (pM), Geomean, inhibition of IFNγ [1]: 18 pM
Emax Values (%), Average, inhibition of IL-17A [2]: 63.9%
IC50 Values (pM), Geomean, inhibition of IL-17A [2]: 31.9 pM
Kd (recombinant human PD-1 [3]): 2.58 nM
koff (recombinant human PD-1 [3]): 0.000574 s⁻¹
kon (recombinant human PD-1 [3]): 222000 M⁻¹ s⁻¹
Kd (cynomologous PD-1): 45.2 nM
koff (cynomologous PD-1): 0.00674 s⁻¹
kon (cynomologous PD-1): 149000 M⁻¹ s⁻¹
B3: Antibody D (antibody, human IgG4 S228P, kappa, V domains shown)
VH: EVQLVESGGGLVQPGGSLRLSCAASGFTFSDYYMSWVRQAPGKGLEWVAYISSGGGSSYYPDLVKGRFTISRDNAKQSLYLQMNSLRAEDTAVYYCARLPHYFAMDYWGQGTLVTVSS
VL: DIQMTQSPSSLSASVGDRVTITCQASQSISSDYLHWYQQKPGKAPKLLIYRTSNLESGVPSRFSGSGSGTDFTFTISSLQPEDIATYYCQQGTSLPRAFGQGTKLEIKR
notes: Humanized 723C2, human IgG4Pro/kappa; also called 723C2-IgG4Pro-461-44 with IgK-462-08

Emax Values (%), Average, inhibition of IFNγ [1]: 49%
IC50 Values (pM), Geomean, inhibition of IFNγ [1]: 7.4 pM
Emax Values (%), Average, inhibition of IL-17A [2]: 69.8%
IC50 Values (pM), Geomean, inhibition of IL-17A [2]: 41.1 pM
Kd (recombinant human PD-1 [3]): 2.73 nM
koff (recombinant human PD-1 [3]): 0.000434 s⁻¹
kon (recombinant human PD-1 [3]): 159000 M⁻¹ s⁻¹
Kd (cynomologous PD-1): 26.5 nM
koff (cynomologous PD-1): 0.00473 s⁻¹
kon (cynomologous PD-1): 178000 M⁻¹ s⁻¹
B4: Antibody A (antibody, human IgG4 S228P, kappa, V domains shown)
VH: B3 VH with A49S, S58K, Q77N, N84S
VL: B3 VL with Q24S, E56A
notes: Humanized 723C2, human IgG4Pro/kappa

Emax Values (%), inhibition of NFAT activity [4]: 48.7%
IC50 Values (nM), inhibition of NFAT activity [4]: 0.17 nM
Emax Values (%), Average, inhibition of IFNγ [5]: 73.5%
IC50 Values (pM), Average, inhibition of IFNγ [5]: 915 pM
B5: 708E4 (mouse IgG1 backbone) (antibody, V domains shown)
VH: QIQLQQSGPELVKPGASVKISCKASGYTFTDYYLNWVKQRPGHGLEWIGWIYPGSSDTKHNENFKGKATLTVDTYSSTAYMQLGSLTSEDSAVYFCTRYSNFFFDYWGQGTTLTVSS
VL: DIVMTQSQKFLSTSVGDRVRVTCKASQNVVTYVAWYQQKPGQSPKSLIYSASYRYSGVPDRFTGSGSGTYFTLTINNVQFEDLAEYFCQQYHSYPYTFGGGTKLEIK

Emax Values (%), inhibition of NFAT activity [4]: 50.8%
IC50 Values (nM), inhibition of NFAT activity [4]: 0.82 nM
Emax Values (%), Average, inhibition of IFNγ [5]: 64.5%
IC50 Values (pM), Average, inhibition of IFNγ [5]: 995 pM
B6: 718C2 (mouse IgG1 backbone) (antibody, V domains shown)
VH: EVQLQQSGPELVKPGASVKMSCKASGYTFTSYVMHWVRQKPGQGLEWIGYIDPDNDGTKYNEKFKGKATLTSDKSSSTAYMELSSLTSEDSAVYYCAREAYYGGLYGMDYWGQGSSVTVSS
VL: DIVMSQSPSSLTVSVGEKVTMSCKSSQSLLYSSNQKIYLAWFQQKPGQSPKLLIYWASTRESGVPDRFTGSGSGTDFTLTISSVKAEDLAVYYCQQYYNSPLTFGAGTKLELK

Kd (recombinant human PD-1 [6]): 3.98 nM
koff (recombinant human PD-1 [6]): 0.000113 s⁻¹
kon (recombinant human PD-1 [6]): 28400 M⁻¹ s⁻¹
Emax Values (%), inhibition of NFAT activity [4]: 44.4%
IC50 Values (nM), inhibition of NFAT activity [4]: 0.38 nM
B7: Chimeric 718C2 (antibody, V domains shown)
VH: B6 VH
VL: B6 VL
notes: Mouse variable domains in human IgG4Pro (Ser228Pro) backbone; also called 718C2 in human IgG4Pro backbone

Emax Values (%), inhibition of NFAT activity [4]: 43.7%
IC50 Values (nM), inhibition of NFAT activity [4]: 0.14 nM
Emax Values (%), Average, inhibition of IFNγ [5]: 74%
IC50 Values (pM), Average, inhibition of IFNγ [5]: 122 pM
B9: 723C2 (mouse IgG1 backbone) (antibody, V domains shown)
VH: EVQLVESGGGLVQPGGSLKLSCAASGFTFSDYYMSWVRQTPEKRLEWVAYISSGGGSSYYPDSVKGRFTISRDNTKNTLYLQMSSLKSEDTAVYYCARLPHYFAMDCWGQGTSVTVSS
VL: EIVLTQSPTTMAASPGEKITITCSASSSISSDYLHWYQQKPGFSPELLIYRTSNLASGVPARFSGSGSGTSYSLTIGSMEAEDVATYYCQQGTSLPRAFGGGTKLEIK

Emax Values (%), inhibition of NFAT activity [4]: 42.2%
IC50 Values (nM), inhibition of NFAT activity [4]: 0.37 nM
Emax Values (%), Average, inhibition of IFNγ [5]: 79%
IC50 Values (pM), Average, inhibition of IFNγ [5]: 459 pM
B10: 313C12 (mouse IgG1 backbone) (antibody, V domains shown)
VH: EVQLVESGGGLVKPGGSLKLSCAASGFTFSDYGMHWVRQTPEKGLEWIAYINSDSNTIYYADTVKGRFTISRDNARKTLYLQMTSLRSEDTAMYYCSPLVAPDYWGQGTTLTVSS
VL: DIVMTQSQKFMSTTVGDRVSITCKASQNVGTAVAWYQQKPGQSPKLLIYSVSNRYTGVPDRFTGSGSGTDFTLTISNMQSEDLADYFCQQYSSYPFTFGAGTKLELK

The next lines start with the binder.

B1: Antibody E (antibody, human IgG4 S228P, kappa, V domains shown)
VH: B3 VH with N84Q
VL: B3 VL
notes: Humanized 723C2, human IgG4Pro/kappa; also called 723C2-IgG4Pro-461-40 with IgK-462-08
Emax Values (%), Average, inhibition of IFNγ [1]: 47.8%
IC50 Values (pM), Geomean, inhibition of IFNγ [1]: 8.1 pM
Emax Values (%), Average, inhibition of IL-17A [2]: 59.2%
IC50 Values (pM), Geomean, inhibition of IL-17A [2]: 8.1 pM
Kd (recombinant human PD-1 [3]): 2.77 nM
koff (recombinant human PD-1 [3]): 0.000492 s⁻¹
kon (recombinant human PD-1 [3]): 178000 M⁻¹ s⁻¹
Kd (cynomologous PD-1): 38.2 nM
koff (cynomologous PD-1): 0.00663 s⁻¹
kon (cynomologous PD-1): 173000 M⁻¹ s⁻¹

B2: Antibody B (antibody, human IgG4 S228P, kappa, V domains shown)
VH: B3 VH with Q77N, N84Q
VL: B3 VL with S57T
notes: Humanized 723C2, human IgG4Pro/kappa; also called 723C2-IgG4Pro-461-41 with IgK-462-07
Emax Values (%), Average, inhibition of IFNγ [1]: 48.9%
IC50 Values (pM), Geomean, inhibition of IFNγ [1]: 18.4 pM
Emax Values (%), Average, inhibition of IL-17A [2]: 63.4%
IC50 Values (pM), Geomean, inhibition of IL-17A [2]: 25.3 pM
Kd (recombinant human PD-1 [3]): 1.62 nM
koff (recombinant human PD-1 [3]): 0.000421 s⁻¹
kon (recombinant human PD-1 [3]): 259000 M⁻¹ s⁻¹
Kd (cynomologous PD-1): 32.9 nM
koff (cynomologous PD-1): 0.00558 s⁻¹
kon (cynomologous PD-1): 169000 M⁻¹ s⁻¹

B8: 306E6 (mouse IgG1 backbone) (antibody, V domains shown)
VH: EVQLQQSGPELVKPGSSVKISCKASGYTFTDYYVNWVKQSHGKSLEWFGDIHPNSGDTTYNQKFKDKATLTVDKSSSTAYMELRSLTSEDSAVYYCARRRYDYDGFAYWGQGTLVTVSA
VL: EIVMTQAAFSNPVTLGTSASISCRSSKSLLHRNGITYLYWYLQKPGQSPQLLIYEMSNLASGVPDRFSSSGSGTDFTLRISRVEAEDVGVYYCGQNLEFPLTFGAGTKLELK
Emax Values (%), inhibition of NFAT activity [4]: 45.5%
IC50 Values (nM), inhibition of NFAT activity [4]: 1.14 nM
Emax Values (%), Average, inhibition of IFNγ [5]: 19.5%
IC50 Values (pM), Average, inhibition of IFNγ [5]: 22 pM

B11: 703D10 (mouse IgG1 backbone) (antibody, V domains shown)
VH: QVQLQQPGAELVKPGASVKLSCKASGYSFTSYWMHWVRQRPGQGLEWIGDIDPSNSYAYHSQKFKGKATLTVDKSSSTAYMQLSSLTSEDSAVYFCARADGTSHWYFDVWGAGTAVTVSS
VL: QIVLTQSPGIMSASPGEKVTITCSANSSVSFMHWFQQKPGTSPKIWIYSTSSLASGVPARFSGSGSGTSYSLTISRMEAEDAATYYCQQRSSYPLTFGAGTKLELK
Emax Values (%), inhibition of NFAT activity [4]: 47.4%
IC50 Values (nM), inhibition of NFAT activity [4]: 10.9 nM
Emax Values (%), Average, inhibition of IFNγ [5]: 65%
IC50 Values (pM), Average, inhibition of IFNγ [5]: 3200 pM

B12: Chimeric 703D10 (antibody, V domains shown)
VH: B11 VH
VL: B11 VL
notes: Mouse variable domains in human IgG4Pro (Ser228Pro) backbone; also called 703D10 in human IgG4Pro backbone
Kd (recombinant human PD-1 [6]): 9.49 nM
koff (recombinant human PD-1 [6]): 0.000329 s⁻¹
kon (recombinant human PD-1 [6]): 34600 M⁻¹ s⁻¹
Emax Values (%), inhibition of NFAT activity [4]: 41.9%
IC50 Values (nM), inhibition of NFAT activity [4]: 0.39 nM

B13: 814E10 (mouse IgG1 backbone) (antibody, V domains shown)
VH: QIQLQQSGPELVKPGASVKISCKASGYTFTSYYIQWVKQRPGQGLEWIGWIYPGDGTTNYNENFKGKTTLTADKSSSTVYMLLSSLTSEDSAVYFCARYGLVPFDYWGQGTTLTVSS
VL: DIQMTQTTSSLSASLGDRVTISCSASQDIINYLNWYQQKPDGTVKLLIYSTSSLHSGVSLRFSGSGSGTDYSLTISNLEPEDVATYYCHQYSQLPYTFGGGTKLEIK
Emax Values (%), inhibition of NFAT activity [4]: 40.7%
IC50 Values (nM), inhibition of NFAT activity [4]: 0.25 nM
Emax Values (%), Average, inhibition of IFNγ [5]: 63%
IC50 Values (pM), Average, inhibition of IFNγ [5]: 74.2 pM

B14: 820C3 (mouse IgG1 backbone) (antibody, V domains shown)
VH: QIQLQQSGPELVKTGASVKISCKASGNTFNSNYIQWVKQRPGQGLEWIGWIYPGDGSTNYSEKFKGKTTLTADKSSSTAYMLVSSLTSEDSAVYFCARYGPVPFDYWGQGTTLSVSS
VL: B13 VL with I30F, S50Y, S59P, L60S, Y71F, V83I, H89Q, Q93N
Emax Values (%), inhibition of NFAT activity [4]: 48.7%
IC50 Values (nM), inhibition of NFAT activity [4]: 0.14 nM
Emax Values (%), Average, inhibition of IFNγ [5]: 82%
IC50 Values (pM), Average, inhibition of IFNγ [5]: 205 pM

B15: Chimeric 820C3 (antibody, V domains shown)
VH: B14 VH
VL: B13 VL with I30F, S50Y, S59P, L60S, Y71F, V83I, H89Q, Q93N
notes: Mouse variable domains in human IgG4Pro (Ser228Pro) backbone; also called chimeric 820C3 in IgG4Pro; 820C3-4P
Kd (recombinant human PD-1 [6]): 2.71 nM
koff (recombinant human PD-1 [6]): 0.000286 s⁻¹
kon (recombinant human PD-1 [6]): 106000 M⁻¹ s⁻¹
Emax Values (%), inhibition of NFAT activity [4]: 40%
IC50 Values (nM), inhibition of NFAT activity [4]: 0.14 nM
Emax Values (%), Average, inhibition of IFNγ [1]: 56.7%
IC50 Values (pM), Geomean, inhibition of IFNγ [1]: 38.5 pM
